Data published in FireProtDB (doi:10.1111/j.1432-1033.1994.tb18977.x).

Conditions: Saccharomyces cerevisiae (strain ATCC 204508 / S288c), pH 7, 30 °C, Urea, Fluorescence, Potassium phosphate 50 mM

Chain of Cytochrome c isoform 1 C108T, P00044 (P00044 whole entry C108T, canonical isoform): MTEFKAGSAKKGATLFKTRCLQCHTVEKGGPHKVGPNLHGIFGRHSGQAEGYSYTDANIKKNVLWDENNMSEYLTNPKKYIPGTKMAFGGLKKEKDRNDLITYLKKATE
Chain of Cytochrome c isoform 1 D96C|C108T, P00044 D96C C108T (P00044 whole entry D96C/C108T, canonical isoform): as the sequence (P00044 whole entry C108T, canonical isoform) above, with D96C counted along it
Chain of Cytochrome c isoform 1 wild type, P00044 (P00044 whole entry, canonical isoform): as the sequence (P00044 whole entry C108T, canonical isoform) above, with T108C counted along it
Chain of Cytochrome c isoform 1 R19C|C108T, P00044 R19C C108T (P00044 whole entry R19C/C108T, canonical isoform): as the sequence (P00044 whole entry C108T, canonical isoform) above, with R19C counted along it

Substance	ddG of mutation (higher = less stable) (structure 1YCC)	denaturant m value (structure 1YCC)	denaturant midpoint (higher = more stable) (structure 1YCC)	unfolding free energy (structure 1YCC)	denaturant m value	denaturant midpoint (higher = more stable)	unfolding free energy
Cytochrome c isoform 1 C108T, P00044	-4.09 kcal/mol	1.79 kcal/mol/M	3.6 M	6.48 kcal/mol	–	–	–
Cytochrome c isoform 1 D96C|C108T, P00044 D96C C108T	-0.91 kcal/mol	1.2 kcal/mol/M	2.8 M	3.3 kcal/mol	–	–	–
Cytochrome c isoform 1 R19C|C108T, P00044 R19C C108T	-4.21 kcal/mol	1.79 kcal/mol/M	3.7 M	6.6 kcal/mol	–	–	–
Cytochrome c isoform 1 wild type, P00044	–	–	–	–	0.91 kcal/mol/M	2.6 M	2.39 kcal/mol
